Tested on: K4 kissing-loop RNA reporter
Experiment: apparent KD of K4 kissing-loop reporter; higher = weaker reporter binding
Conditions: Eterna round: R107; input ligand: none
Procedure: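 RNA-MaP round R107: designed RNA switches with theophylline, tryptophan, arginine or FMN aptamers are transcribed on-chip within common flanks. They are titrated with a labelled K4 kissing-loop RNA reporter in RNA-MaP buffer (100 mM Tris pH 7.5, 80 mM KCl, 4 mM MgCl2), without ligand or with the indicated ligand. Median apparent KD per design.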
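Also: bound reporter read as fluorescence of individual clusters on recovered sequencing chips by microscopy, with normalized cluster intensities fitted with a binding model.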

Sequence	apparent KD of K4 kissing-loop reporter [nM]
GCAGUGAUGUUGCUGAUGUGCAGUGGUAGUCGAGGACCGGUACGGCCGCCACUCGGUGAGAAUUUGCUAAUACAUCGAUAAGUGA [XVII]	1280
CUCAGAAAGACUGUCCAAGUGAUGUUUGGACGAGGACCGGUACGGCCGCCACUCGCUGUUGCGAAUGUUAAGGUACGAGUCGCGG [theeternabot_exclusion_KL_Trp_A_30]	89.1
CUGACCAACAGCGAUACCAGCGUGGAGUGAUGUUCCCUGGUCCGGGCUGAUGUUCCCUUGCGCCCUUGGCAGCGCAGAAGCAGGA [Exclusion Theophylline B GF 12]	351
UUAGAGAUCUCAGGAUAUCAGUGAUGUUGGUGUAAAGAUCUGAGAUAGAAUUCUAUCUCAGAUCAAUGAGAAGGGAGAUCUCAUU [AK3.2 Exc FMN B]	192
AUGGUGGAUCAGUGAUGUUGGUGGAGUACGUAGGAUAUGAGUGAUGUUAGAAGGAUGGGAGUGAUGUUCCAGGUGGUUGUGUUGU [KL-SSFMN-A1]	652
GUUUCUUGGAAACAAGGACCGCUAACCGAAGGAGCGAGUGAAAACUCAGGUAGGUCGCGGUAGCGGAGUGAUGUUCCGCGUUUAC [Excluson Arginine A GF 15]	123
UCGGACCCUGGAGGAUAUGAGUCGAGUGAUGUUUGGCGGUCCAUGCCGGUGCGGCGUUAUGCCCUUUUAGAAGGCCAGGGUCCGA [#2 Exclusion - FMN B Attempt #13 (HarryS)]	307
UUCAGGUGUUCGGCCGCCACUCCAGUGAUGUUGGAGUGGCUUCACAAGGACCAGGACAAUGUAAGGAGGACCGGGAAUAUCGCAG [Leerat]	131
ACUGGAAUUGUACUCCAGUGAUGUUGGAGGCAGGAUAUCCAGUAAAGGAGAAGGGCCAUCGCGCUAUUUGGCCGCAGGCGGCCAG [Acela]	128
UUUGUAUCGGGAAGGAGCGUGAAUGAUAAUGGAUAUAGUGAUGUUAUAUAUAAGAACGAAUCGCAGGUAGGUCGCCCGGAUGACU [SSArgB.Q]	413
UUUGGUUUCUCGGCCGCCACUCGUUGGUUAUGGGCUUCAGGGAUAUAGUGAUGUUAUGUAUAGAAGAGGACCGGGAGAAGGUUUG [ExTryptoB.Dt]	318
GCCUGGGCACGAAGGAGCGCCGUGACAGGUUACUGCAUUGGGCAGUGAUGUUGCUCAAUCUGGCAGGUAGGUCGCGUGCCCAGGC	110
GGUGUUGUUUGUGCUGUUUUCUUUGUUUCUCGAGGACCGGUACGGCCGCCACUCGAGUGAUGUUUGGGUAGUGAUGUUUGUUAGU [Bdazzled #1 Exc. TA]	198
AGACUACCACACUGUCAAUAGACAGUGUACUAGGAUAUGCUGAUAAGCAGAAGGAGUGAUGUUCCUGGGUAGUCAAUAAAAUAAU [FmnAX 13 U28+G67]	486
CGGAUGUAGUGAUGUUAUAUUAGAUGUAGACGAGGACCGGUACGGCCGCCACUCGAAACGGCUACUAGCGCGUUGCGAGGUGUGC [ExTryptoA.CJ]	686
AGCGAUGUUUUCUCUAGGAGUGAUGUUUUUCGAGGACCGGUACGGCCGCCACUCGGACGACGAGUGUGGUAGUGGGCUGUUGACU [ffmullin]	441
UAGUCCUAGUGAUCGUUAUCAAGUGGUGGGCGAGGACCGGUACGGCCGCCACUCGACUAUGCAGUGAUGUUGCAAUCCGGACAAU [Exclusion - Tryptophan A (Freestyle 14)]	222
GCCUAGCAGGGAAGGAGCGGCAUAGGCAUAGAUAAUAUGCAGUUAGUGAUGUUAACACUAUGCCAGGUAGGUCGCCCUGCUAGGC [KL-SSArg B8]	192
CCAUCGCUAUUCGAUACCAGUCUUUUUUAUUUAUAAAAUCUGCAAAGGAGUGAUGUUCCAGACCCUUGGCAGCGAAUAGUGAUGG [Theophylline B K4 3]	464
AAAUAAUGCAGUCACCCAGUGAUGUUGGAAGGAGCGUGCGAAAGCACAGGUAGGUCGCCAAUAAUGAUAAAGUUCAGUGGCUUUA [JR_Nu_ExcArginiA_Sub030]	454
GCAUGCAUGGCAGGAUAUAAUCUGGAGUGAUGUUCCUUUAACCUUUCGAACGGCGAGCCAGGUUGAUUAGAAGGGCCAUGCAUGC	622
UAUCAGAUUACUGAUACCAGUCUAAAGACAGUGAUGUUGUCUGAUCGACCACGAUCCAAGGACCCUUGGCAGCAGUGUACUAUUC [#30 K4 Theophylline B Same State]	194

Same assay, conditions: Eterna round: R107; input ligand: theophylline 20 uM

Sequence	apparent KD of K4 kissing-loop reporter [nM]
UUUCGUUGAAGUGAUACCAGACUUGAAAGUGAUGUUUUCCAAUAAUUUAAAUUAUUAGCUGUCCCUUGGCAGCACAGUUUAUUUA [JR_ExcTheophyB_Sub007]	443
UGUAUGUGAUUUGAUACCAGACCAGCUGAUGGAUCACGAGUGAUGUUCGUGUUGGUUUGGGUCCCUUGGCAGCAAAUCGCAUACU [KL-SSTheoB14]	248
UGUGUUGUUUUGAUGUUUGGUGUUGCUUGGCAGGAUAUCGUAGAGGCGAGAAGGGCUUGUGAGCGGUAUGAGUGAUGUUUGUAGG [zwwrmullin]	416
AAAGCAGUAUACUGCAAGACCUAUACUGAUACCAGAGUCAAUUGACUCCCUUGGCAGCGGAUCGAGUGAUGUUCGUAAGGUCAAA [AK4.1 SS Theophylline A]	734
AGACCACAAAGUGGUCAGUGUUCGCUGCAGCGAGGACCGGUACGGCCGCCACUCGCGAGUGAUGUUCGCGAGAGCAGCGAACACA [Omei KL Tryp A Exc A v6]	87.3
CAUAUCAGAUAAGGAUAUAUGGCUCCUCGAGUCCAGUGAUGUUGGGCAACGUUUCAGUGGUGGAUUAUAGAAGGUAUUCACAGAC [theeternabot_sameState_KL_FMN_B_9]	272
UAGCGUCUGCGAGGAUAUCGGAUUAGAGUGAUGUUCUAAAGACGCCCAGUGAUGUUGGAUGCGAUACGAGAAGGCGCUGGGCGCG [Same State FMN B GF7]	332
GGUAGCAUGGCGGCCGCCACUGUCUAGUGAUGUUAGACCCGACGUGGAUUCAAGACAGUCGGAAACAGGACCGGGCCAUGCUACC	163
AAUUUAUUAACUGAUACCAGACUUAAUAAAUUUUAAAUCACUAGUGAUGUUAGUGAAUAUGUCCCUUGGCAGCAGUAUUUAUUAA [JR_SSTheophyB_Sub023]	121
GGAUAGGACAGAGGAUAUGGUAGUGAUGUUACCACGAGACAAAGUCUCGAAAAGCUACAAAGUAGCCCAGAAGGCUGUCCUAUCG [FmnBX 25 #SwitchBubble #StaticStem #Palindromic]	114
UUUCGGCCCAGUGAUGUUGGGUGGAGGCGGCGAGGACCGGUACGGCCGCCACUCGGCGCACUGGCGGAGUGAUGUUUCGUGUAUA [Same State Tryptophan A GF 14]	708
UGACUGGAUGGAAGGAGCGCUAAACUCCUAGUGAUGUUAGGGACACGAGACAAAGUCUCGAGGCAGGUAGGUCGCCAUCUAGUCU [FiskerMod 7 - Jieux - Same State - Arginine B]	250
AAUAAGGAGUGAUGUUCCAAGUGAUGUUAACGAGGACCGGUACGGCCGCCACUCGAUACGGCCGGAAAGUAAGAUAAACUAAAAU [Same State - Tryptophan A (Freestyle 2)]	45.5
UGCGCUGUGUCCUGAAAUGUCCUCCGGGAUACCAGAGUCUUUUUAUUCCCUUGGCAGCUUGAGUGAUGUUUGAUGCCGUUCUUGU [yvvymullin]	576
UGGGAUGGUUCGGCCGCCACUAUGGUGCAGUGAUGUUGCAUCGUAGUAAAUCAUUCCAUUUACCGUAGGACCGGGAACCUUACGC [Mavelege]	83.4
GGGUGGUAGGCGGCCGCCACUCUGAGCACCCACUGAGUGAUGUUCGUGGCGUAAGCCUGUUCAUAGAGGACCGGGUUUGUUGUUC [Exclusion Tryptophan B GF 16]	470

Sequence	apparent KD of K4 kissing-loop reporter [nM]
CGCAAGCAGCUAGUGAUGUUGGCCGCCUUGCGAGGACCGGUACGGCCGCCACUCGGAGGCGGCUACUGAUAAACCGUCUAACGGA [KL-XTryp-A10]	70.6
GGGAGUGAUGUUCCCACGUUGUCGGUCCUCCGAGGACCGGUACGGCCGCCACUCGCGACCCAGUGAUGUUGGGACUCACCGUACC [Exclusion Tryptophan A Gf 12]	557
UACGUAGAGCGAGGAUAUCCUUCCCACGUCGAAGUACCGUGCUUGAUGGAGUGAUGUUCGAUCAGAGGAGAAGGUGCGAAACGUC [Flavin Switch Lower Fold Energy]	622
AAUUCAGCUAGUGAUGUUAGCGUAGAGUGCAAGGAUAUCCCUGUCAGGAGAAGGUGCGUAGAACGUUUGCCAUCAGAUUGUCCCA [theeternabot_exclusion_KL_FMN_A_48]	104
GAUAUAGUGAUGUUAUAUACUGAUAGACAACGAGGACCGGUACGGCCGCCACUCGAGAGGGUGAAAUUAAUGAUAAAAUAAUAAU [ExyTryA#2]	307
GCAGUGAUGUUGCUGAUGUGCAGUGGUAGUCGAGGACCGGUACGGCCGCCACUCGGUGAGAAUUUGCUAAUACAUCGAUAAGUGA [XVII]	858
CUCAGAAAGACUGUCCAAGUGAUGUUUGGACGAGGACCGGUACGGCCGCCACUCGCUGUUGCGAAUGUUAAGGUACGAGUCGCGG [theeternabot_exclusion_KL_Trp_A_30]	101
CUGACCAACAGCGAUACCAGCGUGGAGUGAUGUUCCCUGGUCCGGGCUGAUGUUCCCUUGCGCCCUUGGCAGCGCAGAAGCAGGA [Exclusion Theophylline B GF 12]	303
UUAGAGAUCUCAGGAUAUCAGUGAUGUUGGUGUAAAGAUCUGAGAUAGAAUUCUAUCUCAGAUCAAUGAGAAGGGAGAUCUCAUU [AK3.2 Exc FMN B]	219
AUGGUGGAUCAGUGAUGUUGGUGGAGUACGUAGGAUAUGAGUGAUGUUAGAAGGAUGGGAGUGAUGUUCCAGGUGGUUGUGUUGU [KL-SSFMN-A1]	507
GUUUCUUGGAAACAAGGACCGCUAACCGAAGGAGCGAGUGAAAACUCAGGUAGGUCGCGGUAGCGGAGUGAUGUUCCGCGUUUAC [Excluson Arginine A GF 15]	150
UCGGACCCUGGAGGAUAUGAGUCGAGUGAUGUUUGGCGGUCCAUGCCGGUGCGGCGUUAUGCCCUUUUAGAAGGCCAGGGUCCGA [#2 Exclusion - FMN B Attempt #13 (HarryS)]	351
UUCAGGUGUUCGGCCGCCACUCCAGUGAUGUUGGAGUGGCUUCACAAGGACCAGGACAAUGUAAGGAGGACCGGGAAUAUCGCAG [Leerat]	115
ACUGGAAUUGUACUCCAGUGAUGUUGGAGGCAGGAUAUCCAGUAAAGGAGAAGGGCCAUCGCGCUAUUUGGCCGCAGGCGGCCAG [Acela]	177
UUUGUAUCGGGAAGGAGCGUGAAUGAUAAUGGAUAUAGUGAUGUUAUAUAUAAGAACGAAUCGCAGGUAGGUCGCCCGGAUGACU [SSArgB.Q]	400
UUUGGUUUCUCGGCCGCCACUCGUUGGUUAUGGGCUUCAGGGAUAUAGUGAUGUUAUGUAUAGAAGAGGACCGGGAGAAGGUUUG [ExTryptoB.Dt]	408
